According to the RNAGym collection of RNA variant scans (doi:10.7554/elife.90254):

B1: OR4K15 (parent)
chain: GUUAACGGUCAUAGGCCAUGGAAACUAGGAGCACCAUUUCGCUGCCAGUGAAGAAAUGAACAAAGAAAAUCUGGGCCAGGCAGGCAUCAAAAGAAAUAGUCUUGCGCUCAACCAGAAAGUCUGUAAUCAUUUUAAGGGUA

Variants of: B1
Assay: self-cleavage, relative activity (ratio to wild type); higher = more cleavage; in vitro, sequencing; the parent is a self-cleaving ribozyme
With GUUAACGGUCAUAGGCCAUGGAAACUAGGAGCACCAUUUCGCUGCCAGUGAAGAAAUGAACAAAGAAAAUCUGGGCCAGGCGGGCAUCAAAAGAAAUAGUCUUGCGCUCAACCUGAAAGUCUGUAAUCAUUUUAAGGGUA the self-cleavage was 0.03.
Work on GUUAACGGUCAUAGGCCACGGAAACUAGGAGCACCAUUUCGCUGCCAGUGAAGAAAUGAACAAAGAAAAUCUGGGCCAGGCAGGCAUCAAAAGAAAUAGUCUUGCGCUCAACCAGAAAGUCUGUAUUCAUUUUAAGGGUA yielded a self-cleavage of 0.65.
With GUUAACGGUCAUAGGCCAUGGUAACUAGGAGCACCAUUUCGCUGCCAGUGAAGUAAUGAACAAAGAAAAUCUGGGCCAGGCAGGCAUCAAAAGAAAUAGUCUUGCGCUCAACCAGAAAGUCUGUAAUCAUUUUAAGGGUA the self-cleavage was 1.56.
Work on AUUAACGGUCAUAGGCCAUGGAAACUAGGAGCGCCAUUUCGCUGCCAGUGAAGAAAUGAACAAAGAAAAUCUGGGCCAGGCAGGCAUCAAAAGAAAUAGUCUUGCGCUCAACCAGAAAGUCUGUAAUCAUUUUAAGGGUA yielded a self-cleavage of 0.78.
With GUUAACGGUCAUAGGCCAUGGAAACUAGGAGCACCAUUUCGCUGCCAGUGAAGUAAUGAACAAAGAAAAUCUGGGCCAGGCAGGCAUCAAAAGAAAUAGUCUUGCGCUCAACCAGAAAGUCUGUAGUCAUUUUAAGGGUA the self-cleavage was 1.6.
In the case of GUUAACGGUCAUAGGCCACGGAAACUAGGAGCACCAUUCCGCUGCCAGUGAAGAAAUGAACAAAGAAAAUCUGGGCCAGGCAGGCAUCAAAAGAAAUAGUCUUGCGCUCAACCAGAAAGUCUGUAAUCAUUUUAAGGGUA, the self-cleavage is reported as 1.7.
Variant GUUAACGGUCAUAGGCCAUGGAAACUAGGAGCACCAUUUCGCUGCCAGUGAAGAAAUGUACAAAGAAAAUCUGGGCCAGGCAGGCAUCAAAAGAAAUAGUCUUGCGCUCAACCCGAAAGUCUGUAAUCAUUUUAAGGGUA has a self-cleavage of 0.03.
GUUAGCGGUCAUAGGCCAUGGAAACUAGGAGCACUAUUUCGCUGCCAGUGAAGAAAUGAACAAAGAAAAUCUGGGCCAGGCAGGCAUCAAAAGAAAUAGUCUUGCGCUCAACCAGAAAGUCUGUAAUCAUUUUAAGGGUA showed a self-cleavage of 1.59.
For GUUAACGGUCAUAGGCCAUGGAAACUAGGAGCACCAUUUCGCAGCCAGUGAAGAAAUGAACAAAGAAAAACUGGGCCAGGCAGGCAUCAAAAGAAAUAGUCUUGCGCUCAACCAGAAAGUCUGUAAUCAUUUUAAGGGUA, the self-cleavage was 0.37.
GUUAAUGGUCAUAGGCCAUGGAAACUAGGAGCACCAUUUCGCUGCCAGUGAAGAAAUGAACAAAGAAAAUCUGGGCCAGGCGGGCAUCAAAAGAAAUAGUCUUGCGCUCAACCAGAAAGUCUGUAAUCAUUUUAAGGGUA showed a self-cleavage of 0.72.
GUUAACGGUCAUAGGCCAUGGAAACUAGGAGCACCAUUUCGCUGCCAGUGAAGAAAUGAACAAAGAAAAUCUGGGCCAGGCAGGCAUCAAAGGAAAUAGUCUUGCGCUCAACCUGAAAGUCUGUAAUCAUUUUAAGGGUA showed a self-cleavage of 0.02.
GUUAACGGUCAUAGGCCAUGGAAACUAGGAGCACCAUUUCGCUGCCAGUGAAGAAAUGAACAGAGAAAAUCUGGGCCAGGCAGGCAUCAAAAGAAAUAAUCUUGCGCUCAACCAGAAAGUCUGUAAUCAUUUUAAGGGUA gave a self-cleavage of 0.76.
With GUUAACGGUCAUAGGCCAUGGAAACUAGGAGCACCCAUUCGCUGCCAGUGAAGAAAUGAACAAAGAAAAUCUGGGCCAGGCAGGCAUCAAAAGAAAUAGUCUUGCGCUCAACCAGAAAGUCUGUAAUCAUUUUAAGGGUA the self-cleavage was 1.85.
GUCAACGGUCAUAGGCCAUGGAAACUAGGAGCACCAUUUCGCUGCCAGUGAUGAAAUGAACAAAGAAAAUCUGGGCCAGGCAGGCAUCAAAAGAAAUAGUCUUGCGCUCAACCAGAAAGUCUGUAAUCAUUUUAAGGGUA showed a self-cleavage of 1.8.
With GUUAACGGUCAUAGGCCAUGGAAACUAGGAGCACCAUUUCGCUGCCAGUGAAGAAAUGACCAAAGAAAGUCUGGGCCAGGCAGGCAUCAAAAGAAAUAGUCUUGCGCUCAACCAGAAAGUCUGUAAUCAUUUUAAGGGUA the self-cleavage was 2.
GUUAACGGUCAUAGGCCAUGGAAACUAGGAGCACCAUUUCGCUGCCAGUGAAGAAAUGAACAGAGAAAAUCUGGGCCAGGCAGGCAUCAAAAGAAAUAGUCUUGCGCUCAACCAGAAAGUCUGUCAUCAUUUUAAGGGUA showed a self-cleavage of 1.23.
GUUAACGGUCAUAGGCCAUGGAAACUAGGAGCACCAUUUCGCUGCCAGUGAAGAAAUGAACAAAGAAAAUCUGGGCCAGGCAGGCAUCAGAAGAAAUAGUCUUGCGCUCAACCAGAAAGUCAGUAAUCAUUUUAAGGGUA gave a self-cleavage of 0.84.
Work on GUUAACGGUCAUAGGCCAUGGAAACUAGGAGCACCAUUUCGCUGCCAGGGAAGAAAUGAACAAAGACAAUCUGGGCCAGGCAGGCAUCAAAAGAAAUAGUCUUGCGCUCAACCAGAAAGUCUGUAAUCAUUUUAAGGGUA yielded a self-cleavage of 1.97.
Work on GUUAACGGUCAUAGGCCAUGGAAACUAGGAGCACCAUUUCGCUGCCAGUGAAGAAAUGAACAAAGGAACUCUGGGCCAGGCAGGCAUCAAAAGAAAUAGUCUUGCGCUCAACCAGAAAGUCUGUAAUCAUUUUAAGGGUA yielded a self-cleavage of 1.67.
GUUAACGGUCAUAGGCCAUGGAAACUAGGAGCACCACUUCGCUGCCAGUGAAGAAAUAAACAAAGAAAAUCUGGGCCAGGCAGGCAUCAAAAGAAAUAGUCUUGCGCUCAACCAGAAAGUCUGUAAUCAUUUUAAGGGUA showed a self-cleavage of 1.14.
GUUAACGGUCAUAGGCCAUGGAAACUAGGAGCACCAUUUCGCUGCCAGUGAAGAAAUGAACAAAGAAAAUCUGGGCCAGGCAGGCAUCAAAAGUAAUAGCCUUGCGCUCAACCAGAAAGUCUGUAAUCAUUUUAAGGGUA gave a self-cleavage of 2.56.
